Data: article PMC7804152, “Structural basis for the multi-activity factor Rad5 in replication stress tolerance”

Key:
KlHIRAN = molecular target: T1, KlHIRAN (Kluyveromyces lactis, UniProt Q6CJM4 174-341); assay: EMSA; FP: 20 mM Tris pH 7.5, 50 mM (dsDNA, KlHIRAN) or 70 mM (ssDNA) NaCl, 2 mM MgCl2, 1 nM DNA, room temp; EMSA: 20 mM Tris pH 7.5, 100 mM KCl, 0.5 mM DTT, 3% glycerol, 2 mM MgCl2, 250 ug/mL BSA, 4 C; pull-down: 20 mM Tris pH 7.5, 50 mM NaCl, 4 C; details: protein: recombinant; tags: intein-CBD cleaved off; label: 5'-FAM
T1 sequence: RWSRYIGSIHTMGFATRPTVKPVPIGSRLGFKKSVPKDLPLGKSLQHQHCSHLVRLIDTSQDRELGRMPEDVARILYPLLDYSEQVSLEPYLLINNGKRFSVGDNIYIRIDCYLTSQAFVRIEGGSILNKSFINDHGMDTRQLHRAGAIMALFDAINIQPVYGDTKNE

ScHIRAN = molecular target: T2, ScHIRAN (Saccharomyces cerevisiae, UniProt P32849 171-375); assay: as above; details: protein: recombinant; tags: intein-CBD cleaved off; label: 5'-FAM
T2 sequence: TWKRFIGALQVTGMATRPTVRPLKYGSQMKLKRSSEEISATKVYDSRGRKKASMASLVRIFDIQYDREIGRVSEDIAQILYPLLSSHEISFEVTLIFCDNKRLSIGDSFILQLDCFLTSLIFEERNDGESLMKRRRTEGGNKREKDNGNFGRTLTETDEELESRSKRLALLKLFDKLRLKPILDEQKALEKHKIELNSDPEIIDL

HsHIRAN = molecular target: T3, HsHIRAN (Homo sapiens, UniProt Q14527 55-180); assay: EMSA; strong preference for free 3'-OH; FP: 20 mM Tris pH 7.5, 50 mM (dsDNA, KlHIRAN) or 70 mM (ssDNA) NaCl, 2 mM MgCl2, 1 nM DNA, room temp; EMSA: 20 mM Tris pH 7.5, 100 mM KCl, 0.5 mM DTT, 3% glycerol, 2 mM MgCl2, 250 ug/mL BSA, 4 C; pull-down: 20 mM Tris pH 7.5, 50 mM NaCl, 4 C; details: protein: recombinant; tags: His (pET28a), HA; label: 5'-FAM
T3 sequence: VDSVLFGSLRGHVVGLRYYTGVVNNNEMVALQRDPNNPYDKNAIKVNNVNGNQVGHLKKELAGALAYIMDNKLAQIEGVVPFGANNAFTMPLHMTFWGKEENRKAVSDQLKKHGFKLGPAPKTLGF

KlRad5 [1] = molecular target: T4, KlRad5 (Kluyveromyces lactis, UniProt Q6CJM4 163-1114); assay: fluorescence polarization; 70 mM NaCl; similar to 5'-FAM; FP: 20 mM Tris pH 7.5, 50 mM (dsDNA, KlHIRAN) or 70 mM (ssDNA) NaCl, 2 mM MgCl2, 1 nM DNA, room temp; EMSA: 20 mM Tris pH 7.5, 100 mM KCl, 0.5 mM DTT, 3% glycerol, 2 mM MgCl2, 250 ug/mL BSA, 4 C; pull-down: 20 mM Tris pH 7.5, 50 mM NaCl, 4 C; details: protein: recombinant; tags: none; label: 3'-FAM
T4 sequence: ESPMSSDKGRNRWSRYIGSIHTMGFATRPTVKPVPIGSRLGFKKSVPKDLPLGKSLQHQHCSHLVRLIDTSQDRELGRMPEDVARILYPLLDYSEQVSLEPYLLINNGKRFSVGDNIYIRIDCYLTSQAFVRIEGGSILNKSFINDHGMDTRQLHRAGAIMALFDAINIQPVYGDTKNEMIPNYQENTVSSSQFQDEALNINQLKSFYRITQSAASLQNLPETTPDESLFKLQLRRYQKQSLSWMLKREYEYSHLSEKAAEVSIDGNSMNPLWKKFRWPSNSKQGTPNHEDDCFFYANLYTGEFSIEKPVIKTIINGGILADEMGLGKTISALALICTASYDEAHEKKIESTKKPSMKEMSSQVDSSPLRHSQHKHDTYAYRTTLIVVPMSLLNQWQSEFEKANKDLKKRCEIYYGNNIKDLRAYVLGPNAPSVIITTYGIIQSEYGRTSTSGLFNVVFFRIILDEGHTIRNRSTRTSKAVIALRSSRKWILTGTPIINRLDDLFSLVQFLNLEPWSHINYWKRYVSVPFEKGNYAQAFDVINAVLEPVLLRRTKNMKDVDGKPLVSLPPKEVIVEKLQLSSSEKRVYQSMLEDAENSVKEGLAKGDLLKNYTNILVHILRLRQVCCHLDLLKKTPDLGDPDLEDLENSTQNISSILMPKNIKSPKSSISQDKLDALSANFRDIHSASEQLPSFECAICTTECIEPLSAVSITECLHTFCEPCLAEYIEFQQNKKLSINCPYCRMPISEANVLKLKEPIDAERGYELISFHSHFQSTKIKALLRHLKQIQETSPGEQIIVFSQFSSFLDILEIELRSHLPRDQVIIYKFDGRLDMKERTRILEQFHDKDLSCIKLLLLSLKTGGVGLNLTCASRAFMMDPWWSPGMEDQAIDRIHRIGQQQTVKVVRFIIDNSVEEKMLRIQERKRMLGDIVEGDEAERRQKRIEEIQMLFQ

KlRad5 [2] = molecular target: T4, KlRad5; assay: fluorescence polarization; 70 mM NaCl; FP: 20 mM Tris pH 7.5, 50 mM (dsDNA, KlHIRAN) or 70 mM (ssDNA) NaCl, 2 mM MgCl2, 1 nM DNA, room temp; EMSA: 20 mM Tris pH 7.5, 100 mM KCl, 0.5 mM DTT, 3% glycerol, 2 mM MgCl2, 250 ug/mL BSA, 4 C; pull-down: 20 mM Tris pH 7.5, 50 mM NaCl, 4 C; details: protein: recombinant; tags: none; label: 5'-FAM
His-KlRad5 = molecular target: T5, His-KlRad5 (Kluyveromyces lactis, UniProt Q6CJM4 163-1114); assay: fluorescence polarization; FP: 20 mM Tris pH 7.5, 50 mM (dsDNA, KlHIRAN) or 70 mM (ssDNA) NaCl, 2 mM MgCl2, 1 nM DNA, room temp; EMSA: 20 mM Tris pH 7.5, 100 mM KCl, 0.5 mM DTT, 3% glycerol, 2 mM MgCl2, 250 ug/mL BSA, 4 C; pull-down: 20 mM Tris pH 7.5, 50 mM NaCl, 4 C; details: protein: recombinant; tags: N-terminal His6; label: 5'-FAM
T5 sequence: T4 sequence

TTTTTTTTTT (ssDNA) [dT10, 5'-FAM]
binding result (KlHIRAN): binds
binding result (ScHIRAN): binds
binding result (HsHIRAN): binds

TTTTTTTCGTCTTCGGCAATTTTTT (ssDNA) [S1 ssDNA, 3'-FAM]
binding result (KlRad5 [1]): binds

TTTTTTTCGTCTTCGGCAATTTTTT (ssDNA) [S1 ssDNA, 5'-FAM]
binding result (KlRad5 [2]): binds
binding result (His-KlRad5): binds
